The text below walks through data of article PMC6890793, “How water-mediated hydrogen bonds affect chlorophyll a/b selectivity in Water-Soluble Chlorophyll Protein” (Scientific Reports, 2019).

The data set deals with the molecule itself. The data set can be described thus: crystal structure; Chl b-reconstituted WSCP crystallised by hanging-drop vapour diffusion (Lv-wt: 0.1 M Na/K phosphate pH 6.0, 3.0 M (NH4)2SO4, 4.7% sucrose; Bo-wt: 0.1 M (NH4)H2PO4 pH 4.5, 10% PEG 3350); data at 100 K; molecular replacement with the Chl a complexes.

B1: Water-Soluble Chlorophyll Protein (WSCP) from Brassica oleracea var. botrytis, wild type, reconstituted with Chl b (natural protein)
chain: REQVKDSNGNPVKRGAKYFIQPAKSNGGGLVPAAINILPFCPLGITQTLLPYQPGLPVSFGYEPVIVGTDYIYTSTTINIEFRSEIWPVCNELSKLWAVDVSSSAAKEPAIIIGGERTAPNSLFKIEEATGAHTYKLTTSSGTVGTIPGPWLGAPQLIATNDDAKTLFVKFVKVDDDAT
notes: Water-Soluble Chlorophyll Protein (WSCP), Brassica oleracea var. botrytis (cauliflower), wild type; also called Bo-wt; Chl b Bo-wt; source: E. coli, overexpressed, purified; apoprotein reconstituted with Chl b
On to B1, for which the binding result is on record as “binds”.
